Series [1] concerns the molecule itself. The series can be described thus: crystal structure; unbound MglB (MglB-1), form 2 crystals in 0.1 M MES pH 6, 0.15 M ammonium sulfate, 15% PEG 4000; 20 molecules in the asymmetric unit; 2.39 Å.
Series [2] has as its target T1, MglB (MglB-2 construct, 6xHis tag cleaved by TEV protease) (M. xanthus), Q1DB03.
T1 chain: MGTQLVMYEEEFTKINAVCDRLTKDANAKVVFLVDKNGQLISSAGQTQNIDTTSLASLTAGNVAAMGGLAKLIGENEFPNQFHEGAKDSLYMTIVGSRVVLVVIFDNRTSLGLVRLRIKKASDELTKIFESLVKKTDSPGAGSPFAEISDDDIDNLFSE
The series can be described thus: crystal structure; MglA-GTPγS/MglB complex; equimolar MglA and MglB with 20x GTPγS, purified by SEC; crystals in 0.2 M HEPES pH 7, 16% PEG 4000; 2.8 Å. The conditions noted are these: remark: other sources report otherwise. For orientation: Size exclusion chromatography separates by hydrodynamic size, large species first.

Series [3] deals with T1, MglB (MglB-2 construct, 6xHis tag …). The series can be described thus: SEC-MALS; MglB at 3 mg/mL in 20 mM Tris pH 7.5, 50 mM NaCl, 10 mM MgCl2; Superdex 75 10/300 GL. The settings on record: remark: other sources report otherwise.

B1: MglB (MglB-1 construct, 34-residue N-terminal tag) (natural protein, M. xanthus)
chain: GTQLVMYEEEFTKINAVCDRLTKDANAKVVFLVDKNGQLISSAGQTQNIDTTSLASLTAGNVAAMGGLAKLIGENEFPNQFHEGAKDSLYMTIVGSRVVLVVIFDNRTSLGLVRLRIKKASDELTKIFESLVKKTDSPGAGSPFAEISDDDIDNLFSE
notes: MglB, GAP of MglA, Myxococcus xanthus; residues 133-165 not visible in the crystal; No cleavage of the tag is described
As usually defined, the stoichiometry N is a count of units in the complex or per binding partner. Regarding B1, the “stoichiometry N” value in series [1] was found to be 4.

B2: MglB (MglB-2 construct, 6xHis tag cleaved by TEV protease), Q1DB03 1-159 (natural protein)
chain: T1 chain
For the molecule B2, the stoichiometry N in series [2] and in series [3] was 2 each time.

The values above are taken from paper PMC6876712, “MglA functions as a three-state GTPase to control movement reversals of Myxococcus xanthus” (Nature Communications, 2019).
